The source of these data is the DeepSol protein solubility set.

The data set in a line: soluble on expression in E. coli; label from the status in PepcDB or PDB records.
As for “MSKYWSNIVKKISPYVPGEQPKDKKYIKLNTNENPYPPSEKVLKAISAAVNESLRLYPDPACESLRNTLAKYYGIKASEVFVGNGSDELLAFSFMAFFNPGDTIIFPDITYSFYEVYSSMFSVNYRLIPLDDEFNVPVEEFFTENDGIILANPNAPTGKALPLQSIRKILEKNDDKVVIIDEAYVDFGARSSVPLIKEFENLLVIQTLSKSRALAGLRVGFALGSEQLIEGLDRVKNSINSYTLDRLALIGAEEAIKDHEYFCEIRDKIINTREWVSKKLSSMGFKVIESKANFIFISHPKINGRLLFEKYKENNILVRHFNSPRIDNFLRVSIGSDEEMNIFCEKTKEIIESLN”, the “soluble on expression in E. coli” value was “soluble”.

Consider “MSLAAGADAGPGPEPCATLVQGKFFGYFSAAAVFPANASRCSWTLRNPDPRRYTLYMKVAKAPVPCSGPGRVRTYQFDSFLESTRTYLGVESFDEVLRLCDPSAPLAFLQASKQFLQMRRQQPPQHDGLRPRAGPPGPTDDFSVEYLVVGNRNEGHHHHHH”, for which the “soluble on expression in E. coli” value was “not soluble”.

“MSLAANMYRVGDYVYFENSSSNPYLIRRIEELNKTASGNVEAKVVCFYRRRDISNTLIMLADKHAKEIEEESETTVEADLTDKQKHQLKHRELFLSRQYESLPATHIRGKCSVALLNETESVLSYLDKEDTFFYSLVYDPSLKTLLADKGEIRVGPRYQADIPEMLLEGESDEREQSKLEVKVWDPNSPLTDRQIDQFLVVARAVGTFARALDCSSSVRQPSLHMSAAAASRDITLFHAMDTLYRHSYDLSSAISVLVPLGGPVLCRDEMEEWSASEASLFEEALEKYGKDFNDIRQDFLPWKSLTSIIEYYYMWKTTDRYVQQKRLKAAEAESKLKQVYIPTYSKPNPNQISTSNGKPGAVNGAVGTTFQPQNPLLGRACESCYATQSHQWYSWGPPNMQCRLCAICWLYWKKYGGLKMPTQSEEEKLSPSPTTEDPRVRSHVSRQAMQGMPVRNTGSPKSAVKTRQAFFLHTTYFTKFARQVCKNTLRLRQAARRPFVAINYAAIRAECKMLLNSEGHHHHHH”: the “soluble on expression in E. coli” value is recorded as “not soluble”.

Regarding “MSLAAPVHAAPLAATASKFLGCAYGAQQAPGFAQYWNKLTPENGGKWGSVEAVRDQMDWSTLDAAYRFAQANQMPFQMHVMVWGNQQPEWIKTLRPAEQRREIEQWFAAVAQRYPDIALLEVVNEPLNDPPSKADTGGGNYLQALGGNGDSGWEWVLQSFRLARRHFPHTKLMINDYSITSSAQATQKYLQIVRLLQRENLVDAIGVQEHAFETTPEVAVSVHRDNLDALAATGLPIYITEFDLDGPTDAQQLADYKRVFPVFWEHPAVHGITLWGFRPGLWRDKEAAYLIRADGTERPALTWLRDYVAAHPGTEGHHHHHH”, the “soluble on expression in E. coli” value is “soluble”.

Consider “MSLADKLSLETLESWLWESANILRGSIDSSDFKNYIFGLLFLKRYNDVFDERVTKLREEENLSYGEAQEEIEDKWGKYPISARWFDLISRTENIGEALDKAFATIEANNPELQHVLTATQYGDKRVLADATLQRLLRHFNQYKLGNDDLYKADMLGDAYEYLIKQFADDAGKKGGEFYTPKAVVQLVVELIDPRPGHSVYDPTCGSGGMLVESAHHVSGLPDGTLMGKPNVLLYGQEKNLGTWAIAKLNLYLHNMHASIERGDTLVEPKHLDGDYLKTFDRVIANPPFSAKSWWTPLELSNENEQENGKKVKAPNYKQVSDPYGRLVYGVPPRGYADLAFAQHMLASLKADGRMGVILPHGVLFRSGEEGKIREGLLFGTGAASGNQPGDVIEAIVGLPSALFYNTGIPACVLILNKQKPSALKDKVIIIDGSRDYLEGKAQNSLHAEDILRIVSTHKAAFEQQVEVENYCRLVTLDEIRSNDGNLNIVRYIDNGESDEVVNVAATLAHMATLAKEEAQIDQRLNRYLMELGLLETGEGHHHHHH”, for which the “soluble on expression in E. coli” value was “soluble”.

As for “MSLADNRDELKETLRTLLRDNPDLVLEVLREHSETVLEIAQQGANQRRRKVLVAQWKTDLEDPKKVNLADRPVRGEANAPVTVVAYSDFTCPYCQQAAGTVEMLLANYKGKVRYVFKQMPLETHENARTASNYYVAASLQDPAKAWKLYEAVFADRDRLVTEGEPFLKKVAQEAGLDMQRLATDIKGRKVKALIEEDMAEARKLGVQGTPYFLVNDLVVRGALPLDLFSDAVDMALEKAGAKEGHHHHHH”, the “soluble on expression in E. coli” value is “soluble”.

With “MSLADWQNLDPEAAREAEKYENPIPSRELILAHLSERGAPATRSQLLDEFGLAGEEPEEALRRRLRAMERDGQLIYTRRGAYAPVDKLDLIRGRISGHRDGFGFLIPDDGSDDLFLSPTQMRLVFDGDRALARVSGHDRRGRREGQLVEVIERAHEIVVGRYFEESGIGVVVADNPKIQQEVLIPPGKAGKARHNQFVQVRIEQWPSIHRQAQGEIVEVLGDYMAPGMEIEVALRSYDIPHVWPAAVEKEAAKLKPEVAEKDKEKRVDLRQVPFVTIDGEDARDFDDAVYAEAKRGGGWRLFVAIADVSHYVKVGSALDEEAARRGNSVYFPERVIPMLPEVLSNGLCSLNPLVDRLAMVCEMTLSKAGKLTGYQFYEAVIHSHARLTYTKVSQLLEHPDSVEAENLRQQLPGVVPHLQQLYALYKALLAGRHVRGAIDFETQETRIVFGADRKISEIRPTQRNDAHRLIEECMLCANVATARFLQKHAIPALYRVHDGPPQEKLNNLRQFLGELGLSLGRGKAAPTPGDYQELLEKIHDRADFRLIQTVMLRSLSQAVYSPDNNGHFGLNYDAYTHFTSPIRRYPDLLVHRAIRSVIRSKAETPHVQRAGAASMPKARIYPYDELRLDQLGEQCSMTERRADEATRDVTNWLKCEYMRERVGETFPGVITAVTGFGLFVELTDIFVEGLVHVTALPGDYYHFDAVHHRLSGERTGRSFRLGDTTEVVVARVDLDERKIDFELAGNVLSAPIGRKKRNGDKSANAGKAPKGRKGASVPEVDLEPALASPDAAVVPRRKAGKVQALPPVAPELLAQAAEMLGNTDVRKSREVKQALLAEARVGGKDKGGKKGKVVPAGKSAKGKAKDGKPAAAAKPGKPTKHRKGPSKPKADNAPAATGARKRKAKSEGHHHHHH”, the “soluble on expression in E. coli” value was “not soluble”.

In the case of “MSLAEAVAQGAFGKVISVRGSGARVGLLPSSRLVPSAVRATVGRFVSIRTASSTIIAIITEVSSENLAETDEHIAVASVDLLGEILPGPLRPKFQRGVTNYPTIGDSVDLISSDDLRIVYEPTGSDQIDVGTLQQDPSVIAYVDIEEMLSKHFAVLGSTGVGKSTGVSLLLNEILKSRPALRIFLLDVHNEYGRSFGDKALVLNPRNLKLPFWLFNFEEIVDVLFAGRPGVPEELDILAEVIPVAKGLYVQYTSTDRLGLKRVDPKSIGYTADTPVPYRLVDLISLIDERMGKLENRSSRIIYHKLISRIETVRNDPRYAFMFDNANVGGDTMADVISHLFRLPANGKPMTIMQLAGFPAEVVDSVVSVLCRMAFDFGLWSDGVSPLLFVCEEAHRYAAADRAIGFGPTRKAVSRIAKEGRKYGVYLGLVTQRPAELDATILSQCNTLFAMRLANDRDQSLLRSAVSDAAANLLSFVPSLGTREVLAFGEGVALPTRLRFKEVPAHQLPRSEAAISTVPSAAAGNDMHFVSAVLERWRGATSHRDVPNDPGIAERPLARTLDAPMLQPSLGLDPDRFSLLKKPLREGHHHHHH”, the “soluble on expression in E. coli” value is reported as “soluble”.

“MSLAEKPKKPQKLRARLPRGLADRGPAEIAATRAMVEKIREVYERYGFEPVETPAFEYTDALGKFLPDQDRPNEGVFSLQDDDEQWISLRYDLTAPLARYVAENFDQLPKPHRSYRFGWVFRNEKPGPGRFRQFMQFDADTVGAPTAAADAEMCMMAADTMEALGIPRGSYVVKVNNRKVLDGVLESIGLGGDENAGRRLTVLRAIDKSDKFAPEEIKKLLGPGRWDGGEEGKGDFTKGAMLSDDQSELILRATSPSFIAGRFNADGSGGISNIDTVELLRSTADNETLKQGCDELAVIADLLDACGYGATSANPDVRVVIDPSVVRGLEYYTGPVYEVELLLDTKDEKGRPVRFGSVGGGGRYDGLVSRFRGEPVPATGFSIGVSRLQAALTLIGQLGNKPQAGPVVVTVFGGEIAGYQKMVATLRKAGIRAELYLGNPKHSLGQQMKYADKRNSPCAIIQGSDEKQQGIVQIKDLILGAELASLEKDRDEYLKKQAEAQFSCNEDEMVAKVQELLQRRGWRGGKGIITITTDPNSSSVDKLAAALEHHHHHH”: the “soluble on expression in E. coli” value is recorded as “soluble”.

Turning to “MSLAELDLTGGMDEARGDIADLLGKEERKILTTGNAEIDKKIADGLPLGSLTLIEGENDTGKSVLTQQFIWGSMHNNLRVDLFSTELTTKSFLTQMESMSLDISDFFAWGYIRLFHCHLVEFKWTPDAMNDILERIITHVKFSNTDVAIIDSLTIFTEYTTNEAVLTFLTQAKNICDQGKTILITMHSYAFTDEVLTRVRSICDAHLLLMRKLMGDKYVMVLEVVKVRGARKTTGNLVSFEVHPGYGMKIIPVSVAKVEGHHHHHH”, the “soluble on expression in E. coli” value is listed as “soluble”.

With “MSLAESVFAERIVQNLLDTDFYKLTMMQAVLHNYPNAEVEWEFRCRNAEDLRPYLAEIRYQIERLAEVEVTADQLAFLERIPFMKPDFIRFLSLFRFNLRYVHTGIEDGQLAIRLRGPWLHVILFEVPLLAIVSEVRNRYRYREVVLEQVGEQLYRKLDWLSAQASSEELAEFQVADFGTRRRFSYRTQEEVVHILKRDFPGRFVGTSNVHLAREYDLKPIGTMAHEWLMAHQQLGPRLVDSQQAALDCWVREYRGQLGIALTDCITMDAFLDDFDLYFAKLFDGLRHDSGDPLAWAEKAIAHYRRLGIDPLSKTLVFSDGLDMPKALQLFRALRGKINVSFGIGTNLTCDIPGVEPMNIVLKMTACNGHPVAKISDAPGKTQCRDENFVAYLRHVFNVPAEGHHHHHH”, the “soluble on expression in E. coli” value is reported as “soluble”.

Turning to “MSLAFVCLAIGCLYTFLISTTFGCTSSSDTEIKVNPPQDFEIVDPGYLGYMYLQWQPPLSLDHFKECTVEYELKYRNIGSETWKTIITKNLHYKDGFDLNKGIEAKIHTMLPWQCTNGSEVQSSWAETTYWISPQGIPETKVQDMDCVYYNWQYLLCSWKPGIGVLLDTNYNLFYWYEGLDHALQCVDYIKADGQNIGCRFPYLEASDYKDFYICVNGSSENKPIRSSYFTFQLQNIVKPLPPVYLTFTRESSCEIKMKWSIPLGPIPARCFDYEIEIREDDTTLVTATVENETYTLKTTNETRQLCFVVRSKVNIYCSDDGIWSEWSDKQCWEGEDLSKKTEGHHHHHH”, the “soluble on expression in E. coli” value is given as “not soluble”.

“MSLAHKAKLKIIPLGGLNEIGKNMTVFEYGNDIIVVDCGLAFPDDEMLGIDLVIPDITYLLKNREKVKAIVLTHGHEDHIGALPYVLKQLNVPIYGTRLTIGLVEYKLKEHGLLRDSKLITVKPRETVEIGQFKVEFIRTSHSIADSAALAIHTPVGTVFHSGDFKIDFTPIDGEVPDLHRFAQLGEKGVLVMLCDSTNIERPGYTMSERTVGETFDNLFRKAEQRIIVATFASNIHRVQQIINSAQKYGRKVAISGRSMVNVVNVAMELGYLTVPEGLLIDLDEANKLPHNKVVIITTGSQGEPMSALTRMASSEHKKVEIVPGDTVIISASPIPGNERLISRVINQLFKKGANVIYEALADIHVSGHACQEEIKLLHTLIKPKFFIPVHGEYRHLVQHAKLAESLGMPPENIFVVDNGTVLEFTKEGHHHHHH”: the “soluble on expression in E. coli” value is reported as “soluble”.

For “MSLAHLAAMFDDLVARFGDRPAIVDDRALSYRELDLLVRKIAVSLAALGIGKGDRVALFLGNCWEFLAVTLACNRLGVLVVPIGIRQRRAELEFLLNNSGAKVVVFEAELTDEIPAAAEVPQLAHRFVAHGTAEGARPFEDLLAAEPANAPLAEMHEDDTAVILYTSGTTGKPKGAELTHLSILHSSYAFARAHELTERDRGLVAVPLSHVTGLVGVSYATIAAGGCVVLMRQAFKTVDFLALAARERITYSILVPAIYTLAVMHPEFDKHDLSAWRIGCFGGAPMPVPTIEMLAKRLPNLQLRNAYGATETTSPTTIMPQAYWRDHMDSVGQAVPYAHVRVLDADDNEVAPGEPGELLIAGPMVVPRYWQRPDANAKEFVNGYWRSGDIGSIDQDGFVRVFDRKKDMINRGGFKIFSAEVENVICGIDGVLETAIIGTPDPVLGERVNAIVVTSEGASLSERDVAAYCAARMSDYKVPESIIIRSEPLPRNANGKIQKTVLRETIADRAASYAREGHHHHHH”, the “soluble on expression in E. coli” value is on record as “not soluble”.
